Reference: patent US20150037348A1 (AbbVie / Abbott, published 2015)

T1: human IL-12 (human, UniProt P29459 23-219; P29460 23-328)
T1 construct: recombinant human IL-12 heterodimer (p35/p40, disulfide-linked); also called hIL-12; rhIL-12
T1 sequence (looked up) 1: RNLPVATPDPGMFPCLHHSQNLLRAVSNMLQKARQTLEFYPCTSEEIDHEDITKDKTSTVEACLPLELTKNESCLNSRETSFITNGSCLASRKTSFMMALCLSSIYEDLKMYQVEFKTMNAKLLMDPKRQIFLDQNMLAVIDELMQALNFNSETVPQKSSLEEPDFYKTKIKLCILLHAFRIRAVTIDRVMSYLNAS
T1 sequence (looked up) 2: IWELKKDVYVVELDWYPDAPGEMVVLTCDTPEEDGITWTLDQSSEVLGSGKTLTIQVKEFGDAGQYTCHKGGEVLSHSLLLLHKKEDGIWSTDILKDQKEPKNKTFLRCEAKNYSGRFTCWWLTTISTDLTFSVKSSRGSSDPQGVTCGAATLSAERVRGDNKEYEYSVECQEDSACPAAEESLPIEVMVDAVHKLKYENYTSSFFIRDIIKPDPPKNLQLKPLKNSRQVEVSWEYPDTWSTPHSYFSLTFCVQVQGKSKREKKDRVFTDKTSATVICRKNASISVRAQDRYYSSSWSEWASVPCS

T2: recombinant human IL-12 (rhIL-12) (human, UniProt P29459 23-219; P29460 23-328)
T2 construct: disulfide-linked p35/p40 heterodimer (p70); also called IL-12 p70; rec. human IL12
T2 sequence (looked up) 1: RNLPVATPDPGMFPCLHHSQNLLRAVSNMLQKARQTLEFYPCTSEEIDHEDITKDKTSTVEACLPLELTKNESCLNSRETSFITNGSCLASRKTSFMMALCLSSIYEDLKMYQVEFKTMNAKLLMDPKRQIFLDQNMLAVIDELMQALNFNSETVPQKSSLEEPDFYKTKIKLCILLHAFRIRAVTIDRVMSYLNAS
T2 sequence (looked up) 2: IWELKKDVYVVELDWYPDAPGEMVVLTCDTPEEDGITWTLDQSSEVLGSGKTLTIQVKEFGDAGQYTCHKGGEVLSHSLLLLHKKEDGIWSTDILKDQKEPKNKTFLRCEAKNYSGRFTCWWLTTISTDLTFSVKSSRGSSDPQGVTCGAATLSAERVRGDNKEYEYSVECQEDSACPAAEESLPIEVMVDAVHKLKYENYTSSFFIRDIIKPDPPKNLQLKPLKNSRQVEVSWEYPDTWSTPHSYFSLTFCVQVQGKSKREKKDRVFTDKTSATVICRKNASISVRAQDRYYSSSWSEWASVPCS


How the values were obtained:
human IL-12 [1] = target: T1, human IL-12; assay: SPR (BIAcore), IL-12 chip
Source text: The system utilizes the optical properties of SPR to detect alterations in protein concentrations within a dextran biosensor matrix. Proteins are covalently bound to the dextran matrix at known concentrations. […] To determine the off rate (koff), on rate (kₒₙ), association rate (Ka) and dissociation rate (Kd) constants, BIAcore kinetic evaluation software (version 2.1) was used.

human IL-12 [2] = target: T1, human IL-12; assay: RB assay: 125I-hIL-12 binding to PHA blasts
Experimental: (§1) PHA blast cells isolated as described above, were washed once and resuspended in binding buffer to a cell density of 2×10⁷ cells/ml. […] The cell pellet was examined for cell bound radioactivity using a gamma counter. […] Incubations were carried out in duplicate.

[3] = target: T2, recombinant human IL-12 (rhIL-12); assay: BIAcore SPR, IL-12 on chip
[4] = target: T2, recombinant human IL-12 (rhIL-12); assay: receptor binding assay, 125I-hIL-12 on PHA blasts
Experimental: as §1

[5] = target: T2, recombinant human IL-12 (rhIL-12); assay: cell-based or functional assay

koff (human IL-12 [1]) | IC50 (human IL-12 [2]) | koff [3] | Binder | also measured
0.0499 s⁻¹ | 400 nM | – | 78-35 (scFv, V domains shown, scFv) VH: QVQLVQSGGGVVQPGRSLRLSCAASGFTFSSYGMHWVRQAPGKGLEWVAFIRYDGSNKYYADSVKGRFTISRDNSKNTLYLQMKSLRAEDTAVYYCTTSGSYDYWGQGTMVTVSS VL: SYVLTQPPSVSGTPGQRVTISCSGGRSNIGSNTVKWYQQLPGTAPKLLIYGNDQRPSGVPDRFSGSKSGTSASLAITGVQAEDEADYYCQSYDSSLTGSRVFGTGTKVTVL | –
0.0025 s⁻¹ | 7 nM | – | 73-B7 (scFv, V domains shown) VH: QVQLVQSGGGVVQPGRSLRLSCAASGFTFSSYGMHWVRQAPGKGLEWVAFIRYDGSNKYYADSVKGRFTISRDNSKNTLYLQMKSLRAEDTAVYYCTTHGSQDNWGQGTMVTVSS VL: SYVLTQPPSVSGTPGQRVTISCSGGRSNIGSNTVKWYQQLPGTAPKLLIYGNDQRPSGVPDRFSGSKSGTSASLAITGVQAEDEADYYCQSYDSSLRGSRVFGTGTKVTVLG | –
0.001 s⁻¹ | 0.2 nM | – | 170-23 (scFv, V domains shown, scFv) V domain 1: QVQLVQSGGGVVQPGRSLRLSCAASGFTFSSYGMHWVRQAPGKGLEWVAFIRYDGSNKYYADSVKGRFTISRDNSKNTLYLQMKSLRAEDTAVYYCTTHGSHDNWGQGTMVTVSS V domain 2: SYVLTQPPSVSGTPGQRVTISCSGGRSNIGSNTVKWYQQLPGTAPKLLIYGNDQRPSGVPDRFSGSKSGTSASLAITGVQAEDEADYYCQSYDRGFTGARVWGTGTKVTVL | –
– | – | 5.55 s⁻¹ | L3.3R3M-G8 (scFv, V domains shown, scFv clone) VH: QVQLVQSGGGVVQPGRSLRLSCAASGFTFSSYGMHWVRQAPGKGLEWVAFIRYDGSNKYYADSVKGRFTISRDNSKNTLYLQMKSLRAEDTAVYYCKTHGSHDNWGQGTMVTVSS VL: SYVLTQPPSVSGTPGQRVTISCSGGRSNIGSNTVKWYQQLPGTAPKLLIYGNDQRPSGVPDRFSGSKSGTSASLAITGVQAEDEADYYCQSYDRGSYPALRFGTGTKVTVL | –
0.00354 s⁻¹ | 0.18 nM | – | 149-9 (scFv, V domains shown, scFv) VH: QVQLVQSGGGVVQPGRSLRLSCAASGFTFSSYGMHWVRQAPGKGLEWVAFIRYDGSNKYYADSVKGRFTISRDNSKNTLYLQMKSLRAEDTAVYYCKTHGSHDNWGHGTMVTVSS VL: SYVLTQPPSVSGTPGQRVTISCSGGRSNIGSNTVKWYQQLPGTAPKLLIYGNDQRPSGVPDRFSGSKSGTSASLAITGVQAEDEADYYCQSYERGFTGSMVFGTGTKVTVL | –
– | – | 4.24 s⁻¹ | L3.3R3M-G7 (scFv, V domains shown, scFv clone) VH: QVQLVQSGGGVVQPGRSLRLSCAASGFTFSSYGMHWVRQAPGKGLEWVAFIRYDGSNKYYADSVKGRFTISRDNSKNTLYLQMKSLRAEDTAVYYCKTHGSHDNWGQGTMVTVSS VL: SYVLTQPPSVSGTPGQRVTISCSGGRSNIGSNTVKWYQQLPGTAPKLLIYGNDQRPSGVPDRFSGSKSGTSASLAITGVQAEDEADYYCQSYDRGFTGSMVFGTGTKVTVL | –
0.0005 s⁻¹ | 0.05 nM | – | 170-25 (scFv, V domains shown, scFv) VH: QVQLVQSGGGVVQPGRSLRLSCAASGFTFSSYGMHWVRQAPGKGLEWVAFIRYDGSNKYYADSVKGRFTISRDNSKNTLYLQMKSLRAEDTAVYYCTTHGSQDTWGQGTMVTVSS VL: SYVLTQPPSVSGTPGQRVTISCSGGRSNIGSNTVKWYQQLPGTAPKLLIYGNDQRPSGVPDRFSGSKSGTSASLAITGVQAEDEADYYCQSYDSSLRGSRVFGTGTKVTVL | –
– | – | 5.69 s⁻¹ | L3.3R3M-H6 (scFv, V domains shown, scFv clone) VH: QVQLVQSGGGVVQPGRSLRLSCAASGFTFSSYGMHWVRQAPGKGLEWVAFIRYDGSNKYYADSVKGRFTISRDNSKNTLYLQMKSLRAEDTAVYYCKTHGSHDNWGQGTMVTVSS VL: SYVLTQPPSVSGTPGQRVTISCSGGRSNIGSNTVKWYQQLPGTAPKLLIYGNDQRPSGVPDRFSGSKSGTSASLAITGVQAEDEADYYCQSYDRGNWPNSNFGTGTKVTVL | –

More lines, now with the values behind:

Binder | koff (human IL-12 [1]) | IC50 (human IL-12 [2]) | koff [3] | also measured
L3.3R3M-A3 (scFv, V domains shown, scFv clone) VH: QVQLVQSGGGVVQPGRSLRLSCAASGFTFSSYGMHWVRQAPGKGLEWVAFIRYDGSNKYYADSVKGRFTISRDNSKNTLYLQMKSLRAEDTAVYYCKTHGSHDNWGQGTMVTVSS VL: SYVLTQPPSVSGTPGQRVTISCSGGRSNIGSNTVKWYQQLPGTAPKLLIYGNDQRPSGVPDRFSGSKSGTSASLAITGVQAEDEADYYCQSYDRGFTGSMVFGTGTKVTVL | – | – | 5.37 s⁻¹ | –
Y61-L50Y (scFv, V domains shown) VH: QVQLVQSGGGVVQPGRSLRLSCAASGFTFSSYGMHWVRQAPGKGLEWVAFIRYDGSNKYYADSVKGRFTISRDNSKNTLYLQMKSLRAEDTAVYYCKTHGSHDNWGQGTMVTVSS VL: QSVLTQPPSVSGAPGQRVTISCSGSRSNIGSNTVKWYQQLPGTAPKLLIYYNDQRPSGVPDRFSGSKSGTSASLAITGLQAEDEADYYCQSYDRGTHPALLFGTGTKVTVL | – | – | – | IC50 [4]: 0.02 nM; IFN gamma IC50 [5]: 0.02 nM
A4 (scFv, V domains shown, scFv clone) VH: QVQLVQSGGGVVQPGRSLRLSCAASGFTFSSYGMHWVRQAPGKGLEWVAFIRYDGSNKYYADSVKGRFTISRDNSKNTLYLQMKSLRAEDTAVYYCKTHGSHDNWGQGTMVTVSS VL: SYVLTQPPSVSGTPGQRVTISCSGGRSNIGSNTVKWYQQLPGTAPKLLIYGNDQRPSGVPDRFSGSKSGTSASLAITGVQAEDEADYYCQSYDRGRNPALTFGTGTKVTVL | – | – | 0.00063 s⁻¹ | IC50 [4]: 0.25 nM
A12 (scFv, V domains shown, scFv clone) VH: QVQLVQSGGGVVQPGRSLRLSCAASGFTFSSYGMHWVRQAPGKGLEWVAFIRYDGSNKYYADSVKGRFTISRDNSKNTLYLQMKSLRAEDTAVYYCKTHGSHDNWGQGTMVTVSS VL: SYVLTQPPSVSGTPGQRVTISCSGGRSNIGSNTVKWYQQLPGTAPKLLIYGNDQRPSGVPDRFSGSKSGTSASLAITGVQAEDEADYYCQSYDRGTTPRPMFGTGTKVTVL | – | – | 0.000557 s⁻¹ | IC50 [4]: 0.25 nM
A5 (scFv, V domains shown, scFv clone) VH: QVQLVQSGGGVVQPGRSLRLSCAASGFTFSSYGMHWVRQAPGKGLEWVAFIRYDGSNKYYADSVKGRFTISRDNSKNTLYLQMKSLRAEDTAVYYCKTHGSHDNWGQGTMVTVSS VL: SYVLTQPPSVSGTPGQRVTISCSGGRSNIGSNTVKWYQQLPGTAPKLLIYGNDQRPSGVPDRFSGSKSGTSASLAITGVQAEDEADYYCQSYDRGTHPSMLFGTGTKVTVL | – | – | 0.00045 s⁻¹ | IC50 [4]: 0.066 nM
99-G11 (scFv, V domains shown, scFv clone) VH: QVQLVQSGGGVVQPGRSLRLSCAASGFTFSSYGMHWVRQAPGKGLEWVAFIRYDGSNKYYADSVKGRFTISRDNSKNTLYLQMKSLRAEDTAVYYCKTHGSHDNWGQGTMVTVSS VL: SYVLTQPPSVSGTPGQRVTISCSGGRSNIGSNTVKWYQQLPGTAPKLLIYGNDQRPSGVPDRFSGSKSGTSASLAITGVQAEDEADYYCQSYDSRFTGSRVFGTGTKVTVL | – | – | 0.0043 s⁻¹ | –
136-24 (scFv, V domains shown, scFv) VH: QVQLVQSGGGVVQPGRSLRLSCAASGFTFSSYGMHWVRQAPGKGLEWVAFIRYDGSNKYYADSVKGRFTISRDNSKNTLYLQMKSLRAEDTAVYYCTTHGSHDNWGQGTMVTVSS VL: SYVLTQPPSVSGTPGQRVTISCSGGRSNIGSNTVKWYQQLPGTAPKLLIYGNDQRPSGVPDRFSGSKSGTSASLAITGVQAEDEADYYCQSYDNAVTASKVFGTGTKVTVL | 0.00089 s⁻¹ | 1 nM | – | –
L3.3R3M-H11 (scFv, V domains shown, scFv clone) VH: QVQLVQSGGGVVQPGRSLRLSCAASGFTFSSYGMHWVRQAPGKGLEWVAFIRYDGSNKYYADSVKGRFTISRDNSKNTLYLQMKSLRAEDTAVYYCKTHGSHDNWGQGTMVTVSS VL: SYVLTQPPSVSGTPGQRVTISCSGGRSNIGSNTVKWYQQLPGTAPKLLIYGNDQRPSGVPDRFSGSKSGTSASLAITGVQAEDEADYYCQSYDRGMIPALTFGTGTKVTVL | – | – | 3.95 s⁻¹ | –
101-11 IgG1 (antibody, V domains shown, IgG1) VH: QVQLVQSGGGVVQPGRSLRLSCAASGFTFSSYGMHWVRQAPGKGLEWVAFIRYDGSNKYYADSVKGRFTISRDNSKNTLYLQMKSLRAEDTAVYYCTTHGSHDNWGQGTMVTVSS VL: SYVLTQPPSVSGTPGQRVTISCSGGRSNIGSNTVKWYQQLPGTAPKLLIYGNDQRPSGVPDRFSGSKSGTSASLAITGVQAEDEADYYCQSYDRGFTGSRVFGTGTKVTVL | – | 1.6 nM | – | –
L3.3R3M-B3 (scFv, V domains shown, scFv clone) VH: QVQLVQSGGGVVQPGRSLRLSCAASGFTFSSYGMHWVRQAPGKGLEWVAFIRYDGSNKYYADSVKGRFTISRDNSKNTLYLQMKSLRAEDTAVYYCKTHGSHDNWGQGTMVTVSS VL: SYVLTQPPSVSGTPGQRVTISCSGGRSNIGSNTVKWYQQLPGTAPKLLIYGNDQRPSGVPDRFSGSKSGTSASLAITGVQAEDEADYYCQSYDRGFTGSMVFGTGTKVTVL | – | – | 5.51 s⁻¹ | –
